In assay [1] the target is Endogenous RSK2 of Cos7 cells (African green monkey (endogenous in Cos7)).
In assay [2] the target is T1, Full-length human recombinant RSK2 isolated from insect cells (human, UniProt P51812 1-740).
T1 construct: Human ribosomal S6 protein kinase 2 (RSK2), full length; also called full-length recombinant RSK2; source: bought: Upstate Biotechnology (isolated from insect cells)
The assay can be described thus: pull-down; GST proteins immobilised on glutathione-sepharose, incubated with 200 ng human recombinant RSK2; binding buffer 20 mM Hepes pH 7.9, 1% Triton, 0.5% NP-40, 200 mM KCl; washes with 1 M KCl; western blot with α-RSK2. As to conditions: both partners purified. (In general: Immunoblotting shows a protein as a band on a membrane.)

T1 sequence (P51812 whole entry): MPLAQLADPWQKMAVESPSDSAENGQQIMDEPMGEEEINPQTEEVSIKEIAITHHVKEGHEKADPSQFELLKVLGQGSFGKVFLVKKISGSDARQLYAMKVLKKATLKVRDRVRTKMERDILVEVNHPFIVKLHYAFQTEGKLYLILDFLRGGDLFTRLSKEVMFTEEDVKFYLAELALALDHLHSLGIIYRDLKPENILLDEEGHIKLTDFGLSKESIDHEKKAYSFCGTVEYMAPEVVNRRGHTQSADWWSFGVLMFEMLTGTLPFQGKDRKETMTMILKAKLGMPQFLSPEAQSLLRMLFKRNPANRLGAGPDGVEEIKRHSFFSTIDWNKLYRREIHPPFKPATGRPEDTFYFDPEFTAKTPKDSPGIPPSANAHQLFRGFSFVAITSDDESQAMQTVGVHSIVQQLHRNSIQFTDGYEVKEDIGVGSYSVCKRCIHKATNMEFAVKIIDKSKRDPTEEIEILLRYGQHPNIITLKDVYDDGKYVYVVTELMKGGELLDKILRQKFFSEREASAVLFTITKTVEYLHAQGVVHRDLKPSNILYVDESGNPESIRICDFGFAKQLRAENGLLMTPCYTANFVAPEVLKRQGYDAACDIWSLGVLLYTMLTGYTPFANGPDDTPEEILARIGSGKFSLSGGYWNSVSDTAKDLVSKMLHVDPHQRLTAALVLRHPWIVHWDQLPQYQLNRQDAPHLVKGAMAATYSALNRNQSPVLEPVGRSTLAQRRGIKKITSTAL

The molecule “Full-length Tat (101 amino acids) bearing a C-terminal FLAG tag (natural protein)” registered an S6 peptide phosphorylation assay of endogenous RSK2 immunoprecipitated from Cos7 cells transfected with Tat in assay [1] of 3 fold.

B1: GST-Tat 1–86 (natural protein)
chain: MEPVDPRLEPWKHPGSQPKTACTNCYCKKCCFHCQVCFITKALGISYGRKKRRQRRRAHQNSQTHQASLSKQPTSQPRGDPTGPKE
notes: HIV-1 Tat amino acids 1-86; also called GST-Tat (amino acids 1–86); recombinant Tat (amino acids 1–86) fused to the C-terminus of GST; source: E. coli BL21, purified (glutathione-sepharose); not shown: GST, N-terminal, kept
For B1, the binding result in assay [2] was “binds”.

These data come from publication PMC1764712, “Recruitment and Activation of RSK2 by HIV-1 Tat” (PLoS ONE, 2007).
